Measurements: article doi:10.1101/2023.07.12.548668

Each substance was assayed against XLF (UniProt Q9H9Q4) (assay: NMR titration (2D lineshape, TITAN)). Conditions: NMR buffer (composition, salt and pH not in material); 800 MHz, 298 K stated for relaxation measurements; EMSA buffer not given.
XLF, sequence (Q9H9Q4 whole entry): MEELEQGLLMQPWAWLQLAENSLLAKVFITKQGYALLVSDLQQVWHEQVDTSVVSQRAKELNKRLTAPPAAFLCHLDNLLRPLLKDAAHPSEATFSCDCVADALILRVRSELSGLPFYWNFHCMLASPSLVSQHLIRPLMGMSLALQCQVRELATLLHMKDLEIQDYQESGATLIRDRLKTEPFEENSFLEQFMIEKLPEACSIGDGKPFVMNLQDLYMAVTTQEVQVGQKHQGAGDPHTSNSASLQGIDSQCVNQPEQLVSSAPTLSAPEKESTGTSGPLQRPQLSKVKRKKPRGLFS

First: 15mer DNA
Second: 18mer DNA
The Kd of the first is 4.2-fold higher: 141 µM for the first, 33.7 µM for the second. The second binds more tightly here.

In the case of 21mer DNA, the Kd is reported as 16.2 µM.
